Where no end group is shown, it is not given here.
Biological target: HRP-conjugated protein-A (UniProt P38507 37-477, HRP conjugate)
Experiment: ELISA: HRP-protein A added to immobilized biotinylated CRF in the absence of CRFBP-Fc
Excerpt: Biotinylated CRF was immobilized on an avidin-coated ELISA plate. […] OD=optical density.

B1: Biotinylated CRF (corticotropin-releasing factor) (peptide, UniProt P06850 154-194, looked up)
peptide: SEEPPISLDLTFHLLREVLEMARAEQLAQQAHSNRKLMEII
modifications: ends and bridges not checked; also: biotinylated, site not given here
notes: Immobilized on an avidin-coated ELISA plate; also called corticotropin-releasing hormone; CRH
binding result: no binding

— patent US20190382462A1 (published 2019)
